The Kd is the constant that tells how readily two partners part at equilibrium.

Sequences and labels used below:
B2: human MICA (Acro, MIA-H5221) (ligand, UniProt Q29983 24-307, looked up)
chain: EPHSLRYNLTVLSWDGSVQSGFLTEVHLDGQPFLRCDRQKCRAKPQGQWAEDVLGNKTWDRETRDLTGNGKDLRMTLAHIKDQKEGLHSLQEIRVCEIHEDNSTRSSQHFYYDGELFLSQNLETKEWTMPQSSRAQTLAMNVRNFLKEDAMKTKTHYHAMHADCLQELRRYLKSGVVLRRTVPPMVNVTRSEASEGNITVTCRASGFYPWNITLSWRQDGVSLSHDTQQWGDVLPDGNGTYQTWVATRICQGEEQRFTCYMEHSGNHSTHPVPSGKVLVLQSHW
notes: Bought reagent used as analyte in solution; also called NKG2D ligand MICA

For assay [1], the target named is B2. Put plainly: BLI (Octet); GNC protein loaded on AHC sensors at 5 ug/ml; human MICA as analyte, 1:2 serial dilutions from 100 nM; global fit, 1:1 model. The protocol: (§1) To validate functionality of the NKG2D receptor in the D2 position, Octet binding was performed. GNC protein was loaded onto AHC sensors at 5 ug/ml, and subsequently bound to 1:2 serial dilutions (top concentration 100 nM) of human MICA (Acro, MIA-H5221).
A general note: In BLI a coated tip is dipped into the sample, and binding shifts an interference pattern.

In another assay the target is T1, SI-49P7.
T1 construct: Penta-specific GNC: same structure as SI-49P6, but with 4-1BB ligand trimer at D4 instead of the anti-4-1BB scFv
Described as above. The protocol:
as §1

T1 sequence (heavy, as listed by the source): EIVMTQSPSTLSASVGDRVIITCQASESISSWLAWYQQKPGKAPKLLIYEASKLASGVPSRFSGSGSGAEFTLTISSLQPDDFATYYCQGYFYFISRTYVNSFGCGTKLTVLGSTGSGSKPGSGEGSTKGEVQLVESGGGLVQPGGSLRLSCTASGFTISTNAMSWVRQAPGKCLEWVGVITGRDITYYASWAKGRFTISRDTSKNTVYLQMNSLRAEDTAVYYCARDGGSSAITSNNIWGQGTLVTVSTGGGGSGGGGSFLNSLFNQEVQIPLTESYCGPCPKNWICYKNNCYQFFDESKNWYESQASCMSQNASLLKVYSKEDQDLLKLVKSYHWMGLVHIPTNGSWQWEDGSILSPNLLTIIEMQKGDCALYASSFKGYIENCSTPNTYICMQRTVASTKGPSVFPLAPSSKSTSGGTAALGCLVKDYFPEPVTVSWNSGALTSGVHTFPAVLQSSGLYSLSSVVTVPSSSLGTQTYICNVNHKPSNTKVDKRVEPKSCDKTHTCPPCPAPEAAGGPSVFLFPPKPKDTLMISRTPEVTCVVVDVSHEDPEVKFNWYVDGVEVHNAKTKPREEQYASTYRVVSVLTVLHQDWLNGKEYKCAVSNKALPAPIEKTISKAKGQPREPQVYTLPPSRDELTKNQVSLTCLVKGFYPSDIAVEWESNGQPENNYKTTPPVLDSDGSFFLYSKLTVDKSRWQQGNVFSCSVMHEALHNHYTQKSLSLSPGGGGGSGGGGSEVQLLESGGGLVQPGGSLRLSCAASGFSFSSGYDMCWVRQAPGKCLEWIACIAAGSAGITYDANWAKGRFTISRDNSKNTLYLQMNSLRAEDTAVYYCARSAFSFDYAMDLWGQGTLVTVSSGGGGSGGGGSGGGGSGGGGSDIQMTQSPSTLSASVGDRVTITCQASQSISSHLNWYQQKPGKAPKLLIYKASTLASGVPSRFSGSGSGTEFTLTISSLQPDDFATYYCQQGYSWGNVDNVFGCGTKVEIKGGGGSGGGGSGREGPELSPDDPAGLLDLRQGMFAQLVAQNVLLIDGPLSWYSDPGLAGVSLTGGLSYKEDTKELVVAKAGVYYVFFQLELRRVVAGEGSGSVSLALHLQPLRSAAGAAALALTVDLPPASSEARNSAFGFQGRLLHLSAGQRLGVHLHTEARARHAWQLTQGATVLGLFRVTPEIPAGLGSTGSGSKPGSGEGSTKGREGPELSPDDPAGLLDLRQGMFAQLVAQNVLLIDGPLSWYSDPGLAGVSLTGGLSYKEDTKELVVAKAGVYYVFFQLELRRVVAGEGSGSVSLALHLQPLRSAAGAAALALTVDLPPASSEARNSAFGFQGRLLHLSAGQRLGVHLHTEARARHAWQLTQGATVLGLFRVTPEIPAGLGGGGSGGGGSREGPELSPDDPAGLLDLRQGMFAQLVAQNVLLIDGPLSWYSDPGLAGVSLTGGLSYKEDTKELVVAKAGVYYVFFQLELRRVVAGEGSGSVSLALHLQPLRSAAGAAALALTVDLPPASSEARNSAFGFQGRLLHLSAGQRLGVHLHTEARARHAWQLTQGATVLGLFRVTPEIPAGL

B1: SI-49R19 (bispecific antibody)
heavy: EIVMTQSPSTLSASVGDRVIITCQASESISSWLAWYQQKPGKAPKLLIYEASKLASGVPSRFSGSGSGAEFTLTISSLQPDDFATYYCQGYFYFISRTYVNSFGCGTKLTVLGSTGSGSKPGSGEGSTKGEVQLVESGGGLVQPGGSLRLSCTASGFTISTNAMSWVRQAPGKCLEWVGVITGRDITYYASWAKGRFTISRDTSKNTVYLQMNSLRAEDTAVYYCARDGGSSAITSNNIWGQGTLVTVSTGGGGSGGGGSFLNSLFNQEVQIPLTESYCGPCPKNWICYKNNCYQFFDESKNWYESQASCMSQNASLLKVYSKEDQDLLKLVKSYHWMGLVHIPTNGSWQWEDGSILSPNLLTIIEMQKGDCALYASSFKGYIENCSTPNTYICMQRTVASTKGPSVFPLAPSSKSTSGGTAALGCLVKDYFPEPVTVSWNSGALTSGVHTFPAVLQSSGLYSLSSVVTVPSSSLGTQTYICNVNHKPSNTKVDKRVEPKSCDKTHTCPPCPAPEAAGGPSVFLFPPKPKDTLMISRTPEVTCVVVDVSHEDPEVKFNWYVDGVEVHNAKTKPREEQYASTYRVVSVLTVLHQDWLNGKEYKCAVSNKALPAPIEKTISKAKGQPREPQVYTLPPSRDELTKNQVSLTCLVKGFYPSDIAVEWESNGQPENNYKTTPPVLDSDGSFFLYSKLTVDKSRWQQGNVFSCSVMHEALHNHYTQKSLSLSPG
light: FLNSLFNQEVQIPLTESYCGPCPKNWICYKNNCYQFFDESKNWYESQASCMSQNASLLKVYSKEDQDLLKLVKSYHWMGLVHIPTNGSWQWEDGSILSPNLLTIIEMQKGDCALYASSFKGYIENCSTPNTYICMQRTVRTVAAPSVFIFPPSDEQLKSGTASVVCLLNNFYPREAKVQWKVDNALQSGNSQESVTEQDSKDSTYSLSSTLTLSKADYEKHKVYACEVTHQGLSSPVTKSFNRGEC
notes: Bispecific GNC: anti-CD3 scFv (αCD3-alt) at D1 and NKG2D at D2
Consider B1, for which, in assay [1], the affinity, expressed as Kd, was 3.93 nM.
Molecule B2 gave a Kd in the assay with SI-49P7 of 11.2 nM.

B3: SI-49R23 (Fc fusion)
chain: FLNSLFNQEVQIPLTESYCGPCPKNWICYKNNCYQFFDESKNWYESQASCMSQNASLLKVYSKEDQDLLKLVKSYHWMGLVHIPTNGSWQWEDGSILSPNLLTIIEMQKGDCALYASSFKGYIENCSTPNTYICMQRTVASEPKSSDKTHTCPPCPAPEAAGGPSVFLFPPKPKDTLMISRTPEVTCVVVDVSHEDPEVKFNWYVDGVEVHNAKTKPREEQYASTYRVVSVLTVLHQDWLNGKEYKCAVSNKALPAPIEKTISKAKGQPREPQVYTLPPSRDELTKNQVSLTCLVKGFYPSDIAVEWESNGQPENNYKTTPPVLDSDGSFFLYSKLTVDKSRWQQGNVFSCSVMHEALHNHYTQKSLSLSPGK
notes: Monospecific protein with NKG2D directly fused to the antibody Fc domain; Two copies are inferred from the Fc dimer
On to B3, for which, in assay [1], the affinity, expressed as Kd, was 14.9 nM. That is a double-digit nanomolar value.

Values taken from US20230113563A1 (SYSTIMMUNE, published 2023).
